Experiments:
[1] = target: T1, fXIIa (Homo sapiens, UniProt P00748); test: Chromogenic test of protease inhibition in buffer, fXIIa (substrate S-2302); format: biochemical; conditions: versus fXIa, fXa, aPC; Table 2
T1 construct: it can be transformed into an active protease, factor XIIa (fXIIa)
Experimental: (§1) In order to assess selectivity of the fXIIa inhibition by the polypeptide comprising the sequence of the infestin-4 mutant MutB, its inhibitory activity in buffer solution against the purified coagulation factors was determined. The polypeptide's activity was compared with the known fXIIa inhibitors: CTI, infestin-4, infestin-4-based mutant Mut15, LCTI-III. […] The standard deviation amounted to about 50% of the average value; each value was measured by performing 2-3 repeats.
(§2) To determine the inhibition activity of such proteins as MutB, CTI, Inf4, Mut15, and LCTI-III as related to different coagulation proteases in a buffer, the chromogenic test was used: the mixture of protease and inhibitor was incubated in the wells of the plate for 15 minutes at 37° C., after which the chromogenic substrate solution was added to the mixture, and the protease activity was measured as the rate of chromogenic product formation at 37° C.
(§3) Chromogenic substrates included a p-nitroanilide group cleaved by the corresponding proteases. After cleavage of the p-nitroanilide group from the substrate molecule, the group absorption spectrum changes, and the change of concentration of such product within time can be detected at the light wavelength of 405 nm using a plate spectrophotometer. […]

[2] = test system: TF-initiated fibrin clot growth; test: Thrombodynamics analyzer T-2, fibrin clot growth from immobilized TF in normal and hypocoagulant PFP (0.1 IU/ml heparin); format: biochemical, human; conditions: MutB 20 μM, CTI 15 μM; n=4
Experimental: The influence of contact activation inhibitors on coagulation dynamics can be shown on the example of fibrin clot growth from the surface with immobilized TF. The dynamics of fibrin clot growth from the activator can be characterized by the following parameters: delay of clot formation after the contact of plasma with the tissue factor—lag time (Tlag, min); average clot growth velocity within 2-6 minutes after the start of coagulation—initial velocity (Vin, μm/min); and average clot growth velocity within 15-25 minutes after the start of coagulation—stationary velocity (Vst, μm/min) (Balandina et al. 2011, Biophys. J. 101:1816-1824; Dashkevich et at 2012, Biophys. J. 103:2233-2240). The mentioned parameters allow determining the state of blood coagulation of the subjects from whom the test samples were obtained («Practical coagulology», M A Panteleev, S A Vasilyev, E I Sinauridze and co-authors, ed. by A I Vorobyov. Moscow, publishing house «Practical medicine», 2011, 192 pages., ISBN: 978-5-98811-165-8). […]

[3] = target: fXa (Homo sapiens, UniProt P00742); test: Chromogenic test of protease inhibition in buffer, fXa (substrate S-2765); format: biochemical; conditions: buffer solution, summary of Table 2
Experimental: as §1, §2, §3

[4] = test system: fibrinolysis; conditions: supposedly by inhibiting the tissue activator of plasminogen; cited from earlier work
[5] = target: T2, activated protein C (UniProt P04070 43-197; P04070 212-461); test: chromogenic test (Spectrozyme pCa), IC50 converted by Cheng-Prusoff
T2 construct: also called aPC
Experimental: as §2
Chromogenic substrates included a p-nitroanilide group cleaved by the corresponding proteases. After cleavage of the p-nitroanilide group from the substrate molecule, the group absorption spectrum changes, and the change of concentration of such product within time can be detected at the light wavelength of 405 nm using a plate spectrophotometer. To build a dependence curve of the protease activity from the inhibitor concentration, different inhibitor concentrations were added into several samples with the same protease concentration. After that, the inhibitor concentration able to decrease the protease activity by 50% (IC50) was determined. The inhibition constant Ki was calculated using the Cheng-Prusoff equation (Ki=IC50/(1+S/KM)), where S is the initial substrate concentration, KM is the Michaelis-Menten constant of the substrate to the protease.

T2 sequence (P04070 43-197, form in doubt, chain 1 of 2): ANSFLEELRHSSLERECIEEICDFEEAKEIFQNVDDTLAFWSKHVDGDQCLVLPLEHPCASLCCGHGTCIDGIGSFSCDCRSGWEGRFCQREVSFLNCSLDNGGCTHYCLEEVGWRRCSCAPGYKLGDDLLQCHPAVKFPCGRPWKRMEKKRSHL
T2 sequence (P04070 212-461, form in doubt, chain 2 of 2): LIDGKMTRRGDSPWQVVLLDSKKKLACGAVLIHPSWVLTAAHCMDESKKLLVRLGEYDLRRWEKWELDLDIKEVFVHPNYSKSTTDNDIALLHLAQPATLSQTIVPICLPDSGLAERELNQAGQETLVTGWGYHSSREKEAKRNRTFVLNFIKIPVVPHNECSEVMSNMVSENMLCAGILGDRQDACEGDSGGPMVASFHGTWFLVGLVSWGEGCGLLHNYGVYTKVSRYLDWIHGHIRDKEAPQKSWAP
T1 sequence (P00748 373-615 limits assumed, other chains not shown): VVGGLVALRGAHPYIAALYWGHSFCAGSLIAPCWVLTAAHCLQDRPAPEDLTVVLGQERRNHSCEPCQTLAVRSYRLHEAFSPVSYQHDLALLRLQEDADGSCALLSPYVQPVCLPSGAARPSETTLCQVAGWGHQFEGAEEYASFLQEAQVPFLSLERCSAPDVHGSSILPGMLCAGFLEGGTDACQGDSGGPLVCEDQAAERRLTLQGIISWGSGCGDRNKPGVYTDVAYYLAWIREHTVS
Sequence of fXa (P00742 235-488 limits assumed): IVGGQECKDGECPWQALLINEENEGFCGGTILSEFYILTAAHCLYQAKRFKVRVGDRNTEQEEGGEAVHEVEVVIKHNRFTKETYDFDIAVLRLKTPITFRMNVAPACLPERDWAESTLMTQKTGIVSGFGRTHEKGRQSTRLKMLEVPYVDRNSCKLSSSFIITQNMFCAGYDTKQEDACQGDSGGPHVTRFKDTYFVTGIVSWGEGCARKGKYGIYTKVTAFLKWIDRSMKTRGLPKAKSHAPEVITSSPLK
Sequence of fXa (P00742 41-179 partner limits assumed): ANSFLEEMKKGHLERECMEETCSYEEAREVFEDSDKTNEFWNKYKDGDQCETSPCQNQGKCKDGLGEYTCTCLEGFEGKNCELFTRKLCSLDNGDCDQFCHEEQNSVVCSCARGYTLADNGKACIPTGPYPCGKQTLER

| fXIIa inhibition selectivity among the said fXIIa inhibitors [1] | inhibition of fXa (in words) [3] | Ki [5] [µM] | Molecule | influence on the difference of fibrin clot growth dynamics between hypocoagulant and normal plasma [2] | effect on fibrinolysis [4] |
| --- | --- | --- | --- | --- | --- |
| highest | do not inhibit |  | MutB: polypeptide comprising the sequence of infestin-4 mutant MutB (SEQ ID NO: 1), inhibition loop TRNFVA; high-selectivity fXIIa inhibitor (EVRNPCACTRNFVAVCGSDGKTYGNPCMLNCAAQTKVPGLKLVHEGRCQRSNVEQF; Infestin-4 mutant MutB) | does not have any influence |  |
|  |  | 20 | corn trypsin inhibitor (other, UniProt P01088 29-138, looked up, Isolated from corn; also called CTI) SAGTSCVPGWAIPHNPLPSCRWYVTSRTCGIGPRLPWPELKRRCCRELADIPAYCRCTALSILMDGAIPPGPDAQLEGRLEDLPGCPREVQRGFAATLVTEAECNLATIS | does not have any influence | can delay fibrinolysis |

— patent publication US10006080B2, “High-selectivity contact activation inhibitor based on infestin-4” (OBSCHESTVO S OGRANICHENNOY OTVETSTVENNOSTYU …, priority 2013, dated 2018)
